Assays:
Experiment in all cases: ELISA, target coated at 1 μg/ml, TsM titrated from 10 μg/ml
CD19-CD3-B7RP-1 TsM_M = molecular target: T1, CD19-CD3-B7RP-1 TsM_M
T1 construct: CHO-S expressed, N-glycosylated monomer; also called 单体形式的抗CD19/抗CD3/B7RP-1三特异性分子

CD19-CD3-B7RP-1 TsM_D = molecular target: T2, CD19-CD3-B7RP-1 TsM_D
T2 construct: Disulfide-linked, glycosylated dimer; also called 二聚体形式的抗CD19/抗CD3/B7RP-1三特异性分子

CD19-CD3-4-1BBL TsM_M = molecular target: T3, CD19-CD3-4-1BBL TsM_M
T3 construct: monomer confirmed by SDS-PAGE and mass spectrometry; also called 单体形式的抗CD19/抗CD3/4-1BBL三特异性分子; 单体形式的TiTE三特异分子

CD19-CD3-GITRL TsM_M = molecular target: T4, CD19-CD3-GITRL TsM_M
T4 construct: CHO-S expressed, N-glycosylated monomer; also called 单体形式的抗CD19/抗CD3/GITRL三特异性分子

CD19-CD3-OX40L TsM_D = molecular target: T5, CD19-CD3-OX40L TsM_D
T5 construct: Disulfide-linked, glycosylated dimer; also called 二聚体形式的抗CD19/抗CD3/OX40L三特异性分子

CD19-CD3-GITRL TsM_D = molecular target: T6, CD19-CD3-GITRL TsM_D
T6 construct: Disulfide-linked, glycosylated dimer; also called 二聚体形式的抗CD19/抗CD3/GITRL三特异性分子

CD19-CD3-CD70 TsM_D = molecular target: T7, CD19-CD3-CD70 TsM_D
T7 construct: Disulfide-linked, glycosylated dimer; also called 二聚体形式的抗CD19/抗CD3/CD70三特异性分子

CD19-CD3-4-1BBL TsM_D = molecular target: T8, CD19-CD3-4-1BBL TsM_D
T8 construct: Two chains joined by disulfide bonds of the IgD hinge (dimer by non-reducing SDS-PAGE and mass spectrometry); also called 二聚体形式的抗CD19/抗CD3/4-1BBL三特异性分子; 二聚体形式的TiTE三特异分子

CD19-CD3-OX40L TsM_M = molecular target: T9, CD19-CD3-OX40L TsM_M
T9 construct: CHO-S expressed, N-glycosylated monomer; also called 单体形式的抗CD19/抗CD3/OX40L三特异性分子

CD19-CD3-CD70 TsM_M = molecular target: T10, CD19-CD3-CD70 TsM_M
T10 construct: CHO-S expressed, N-glycosylated monomer; also called 单体形式的抗CD19/抗CD3/CD70三特异性分子

Measured: binding result

B1: 人类ICOS-hFc融合蛋白 (Fc fusion)
chain: EINGSANYEMFIFHNGGVQILCKYPDIVQQFKMQLLKGGQILCDLTKTKGSGNTVSIKSLKFCHSQLSNNSVSFFLYNLDHSHANYYFCNLSIFDPPPFKVTLTGGYLHIYESQLCCQLK
notes: Bought from 吴江近岸蛋白质科技有限公司; also called 重组蛋白ICOS-hFc; T细胞正共刺激分子ICOS-hFc; not shown: human Fc (hFc)
binds: CD19-CD3-B7RP-1 TsM_M | CD19-CD3-B7RP-1 TsM_D

B2: 人类CD19-hFc融合蛋白 (Fc fusion, human, UniProt P15391 20-291, looked up)
chain: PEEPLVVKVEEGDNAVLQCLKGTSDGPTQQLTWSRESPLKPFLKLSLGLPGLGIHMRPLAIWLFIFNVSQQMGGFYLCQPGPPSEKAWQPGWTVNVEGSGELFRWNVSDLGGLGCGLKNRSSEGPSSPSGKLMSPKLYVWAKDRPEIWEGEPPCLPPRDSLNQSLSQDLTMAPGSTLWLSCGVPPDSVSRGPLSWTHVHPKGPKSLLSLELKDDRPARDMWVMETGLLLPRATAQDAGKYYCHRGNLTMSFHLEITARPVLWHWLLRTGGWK
notes: Bought from 吴江近岸蛋白质科技有限公司; Coated at 1 μg/ml in ELISA; also called 重组抗原CD19-hFc; 抗原CD19-hFc; not shown: human Fc (hFc)
binds: all assays above

B3: 人类GITR-hFc融合蛋白 (Fc fusion)
chain: QRPTGGPGCGPGRLLLGTGTDARCCRVHTTRCCRDYPGEECCSEWDCMCVQPEFHCGDPCCTTCRHHPCPPGQGVQSQGKFSFGFQCIDCASGTFSGGHEGHCKPWTDCTQFGFLTVFPGNKTHNAVCVPGSPPAE
notes: Bought from 吴江近岸蛋白质科技有限公司; also called 重组蛋白GITR-hFc; T细胞正共刺激分子GITR-hFc; not shown: human Fc (hFc)
binds: CD19-CD3-GITRL TsM_M | CD19-CD3-GITRL TsM_D

From patent CN108264558A (SHANGHAI NOVOPROTEIN BIOTECHNOLOGY CO LTD, dated 2018)
